Laboratory results reported in the nanobody polyreactivity screen of Harvey et al. (2022).

assay: yeast display, Sf9 membrane polyspecificity reagent, FACS + sequencing; frameworks hold sequencing errors
In short: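 Using colony PCR, genes from sorted yeast display clones were amplified, then sequenced on MiSeq at 2 × 250 and filtered by CDR length. The clones had been stained with 10% biotinylated, detergent-solubilized Sf9 membrane reagent for 1 hour at 4 °C and sorted by FACS into low and high (top ~1%) gates on anti-HA and streptavidin fluorescence. Polyreactivity labels come from the gate of origin.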

| Sequence | polyreactivity (PSR sort gate) |
| --- | --- |
| QVQRVESGGGLVQAGGSLRLSCAASGITFRTNTMGWYRQAPGKERELVAAITWDAGSTYYADSVKGRFTISRDNAKHTVYVQMKSLKPEDTAVYYCAARLSYLYGLYPYYYWGQGTQLTVSS | high polyreactivity |
| QVQLVESGGGLVQAGGSLRLSCAASGSTFGYNAMAWYRQAPGKERELVAAISWSGGSTYYADSVKGRFTISRDNAKNTVYLQMNSLKPEDTAVYYCATPYVKWNDYWGQGTQVTVSS | low polyreactivity |
| QVQLVESGVGLVQAGGSLRLSCAASGFIFYPNAMGWYRQAPGKEREWVAVITGGGSTRYADSVKGRFTISRDNAKNTVYLQMNSLKPEDTAVYYCAVGTVYLTYRGYEYWGQGTQVTVSS | high polyreactivity |
| QVQLVESGGGLFQAGGSLRLSCAASGRTFAYYTMGWYRQAPGKERELVAAITSSGGSTYYADSEKGRFTISRDNAKNTVYLQMNSLKPEDTAVYYCNAYGLRWASRLGYDYWGQGTQVTVSS | high polyreactivity |
| QVQLVESGGVLVQAGGSLRLSCAASGFTFNYYVMGWYRQAPWKERELVATITSVGSTYYADSVKGRFTISRDNAKNTVYLQMNSLKPEDTAVYYCNADWYWRVYWGQGTQVTVSS | high polyreactivity |
| QVQLVESGGGLVQAGGSLRLSCAASGSTFVYYAMGWYRQAPGKEREFVAGISRSGGSTYYADSVKGRFTISRDNAKNTVYLQMNSLIPEDTAVYYCNARGGLPKYGYWGQGTQVTVSS | high polyreactivity |
| QVQLHESGGGLVQAGGSLRLSCAASGTISYAGPMGWYRQAPGTEREFVAGIGVGSNTNYADSVKGRYTIIRDNAKNTVYLQMNSLKPEDTAVYYCAVGGYAPLGRPYWGQGTQVTVSS | low polyreactivity |
| QVQLVESGGGLVQAGGSLRLSCAASGRTFVGYSMGWYRQAPGKEREFVATITSSGRTNYADSVKGRFTISRDNAKNTVYLQMNSLKPEDTAVYYCNAVYGRFVDLRYDYWGHGTQVTVSS | high polyreactivity |
| QVQLVESGGGLVQAGGSLRLSCAASGSIFRSYAMGWYRQAPGKERELVAGITRGGSTNYADSVKGRFTISRYNAKNTVYLQMNSLKPEDTAVYYCNADTVSLGHSLDDGDYWGQGTQVTVSS | low polyreactivity |
| QVQLVVSGGGLVQAGGSLRLSWAASGSIFERYAMGLYRQAPGKERELVARISRSGTSTYYADSVKGRFTISRDNAKNSVYDQMNSLQPEDTAVYYCNATGSRYSGYQRCHYWRYDYLGQGTQVTVSS | high polyreactivity |
| QVQLVESGGGLVQAGGSLRLSCAASGFTFYRYVMGWYRKAPGKETELDAAISRRGGSTYYADSVKGRFTISRDNAKNTVYLQMNSLKPEDTAVYYCAADVISRYYVQYIGYYELHYDYWGQGTQVTVSS | high polyreactivity |
| QVQLVESGGGLVQAGGSHRLRCADSGFTFYSNAMGCYRQAPGKERELVASITWSGGNTYYADSVKGRFTISRDKAKTTVYLQMNSLKPEDTAVYYCAAGYSRDVQGYARAYRFYYWGQGTQVTVSS | high polyreactivity |
| QVQLVESGGGLVQAGGSLRLSCAASGCIFSDSTMGWYRQAPGKERELVAAISGIGGSTYYADSVKGRFTISRDNAKNTVYLQMNSLKPEDTAVYYCAADDYYYPYVSHDYWGQGTQVTVSS | low polyreactivity |
| QVQLVESGGGLVQAGGSLRLSCAASGRTFKSYAMGWYRQAPGKERELVAAISKRGGSTYYADSVKGRFTISRDNAKNTVYLQMNSLKPEDTAVYYCAADARYRSYSLLVRPGRYYYWGQGTQVTVSS | high polyreactivity |
| QVQLVESGGGLFQAGGSLRLSSAASGRIIRRNAMGWYRQAPGKEWDLDAAITSSGGNTYYADSVKGRFTISRDNAKNTVYLQMNSLKPEDSAVYYCATYPGNWDLDYWGQGTQVTVSS | high polyreactivity |
| QVQLVESGGGLVQAGGSLRLSCAASGRTFTPNAMGWYRQAPGKERELVASIRRGTSTYYADSVKGRFTISRDNAKNTVYLQMNSLKPEDTAVYYCAARPFVPRVGTYSYYWGQGTQVTVSS | high polyreactivity |
| QVQLVESGGGLVQAGGSLRLSCAASGSTFTINAMGWYRQAPGKERELVAAISWSDVDTYYADSVKGRFTISGDTAKNTVYLQMNSLKPEDTAVYYCSAQFSYRYYTDEVGYLGQGTQVTVSS | high polyreactivity |
| QVQLVESGGGLVQAGGSLRLSCAASGLNFSGYAMGWYRQAPGKESEMVAAINSGTSTTYADSVKARFTISRDNAKNTVYLQMNSMKPDDTAVYSCSATLEGGWWATYGSDYWGRGTQVTVSS | low polyreactivity |
| QVQLVESGGGLVQAGGSLRLSCAASGLIIYRYAMGWYRQAPGKERELVAAISSTGGRTYYADSVKGRFTISRDNAKNTVYLQMNSLKPEDTAVYYCNADYGWKYVQYYYWGQGTQVTVSS | high polyreactivity |
| QVQLVESGGGLVQAGGSLRLSCAASGRTFYSYAMGWYRKAPGKERELVAAISASGGRTYYADSVKGRFTISRDNAKNTVYLQMNSLKPEDTAVYYCAAYPWYRMWGQGTQVTVSS | high polyreactivity |
| QVQLVESGGGLVQAGGSLRLSCPASGLTFAYYTMGWYRQSPGKERELVADISRSGGSTYYADSVKGRFTISRDNAKNTVYLQMNSLKPEDSAVYYCAARANVYTKKRDYWGQGTQVTVSW | high polyreactivity |
| QVQLGESGGGLVQAGGSLRLSCAASGFIFRNYAIGWYRPPPGKERELVAAISRSGGSKYYADCVKGRFTISRDKAKNSVYLQMNSLKPVDTAVYYCNKDPRGRIPVPGTWIMDYWGQGTQVTVSS | high polyreactivity |

| Sequence | polyreactivity (PSR sort gate) |
| --- | --- |
| QVQLVESGGGLVQAGGSLRLSCDASGSIFPYNAMGWYRQAPGKEREFVAAINLSGRSTNYADSVKGRFTISRDNAKNTVYLQMNSLKPEDTAVYYCNAPFVYFWPLNFDYWGQGTQVTVSS | low polyreactivity |
| QVQLVESGGGLVQAGGSLRLSCAASGRIFTRYAMGWYRQAPGKERELVAAINSGGSTKYADSVKGRFTISRDNAKHTVYLQMNSLKPEDTAVYYCNACYWWYGYDYWGQGTQVTVSS | high polyreactivity |
| QVQLVESGGGLVQAGGSLRLSCAASGSIFGSNAMGWYRQAPGKEREFVAVITWRVGDTYYADSVKGRFTISRDNAKNTVYLQMYSLKPEDTAVYYCNVDWKVYGAPDYRIAWKYDYWGQGTQVTVSS | low polyreactivity |
| QGQLVESGGGLVQAGGSLRLSCAASGRIFRIYAMGWYRQAPGKERELVARITYSGGSTYYADSVKGRFTISRDNAKNTVYLQMNSLKPEDTAVYYCAADWLGYQYGYWGQGTQVTVSW | low polyreactivity |
| QVQLVESGGGLVQAGGSLRLSCAASGFTFWDYAMGWYRQAPGKERELVAAISSRGTRTYYADSVKGRFTISRDNAKNTVYLQMNSLKPEDTAVYYCATAIPDPDYIHNYWGQGTQVTVSS | high polyreactivity |
| QVQLVESGGGLVQAGGSLRLSCAASGFNVRYYAMGWYRQAPGKERELVAAISSGGNTRYADSVKGRFTISRDNAKNTVYLQMNSLKPEDTAVYYCARRPGAWKYVYTGDYWGQGTQVTVSS | high polyreactivity |
| QVQLVESGGGLVPSGGSLRLSCAASGRIFTSNAMGWYRQAPGKERELVAAISKSGGRTYYADSVKGRFTISRDNAKNTVYLQMNSLKPEETAVYYFAKDNFWGQGTQVTLSS | high polyreactivity |
| QVQLVESGGGLVQAGGSLRLSCAASGIIFGGYDMGWYRQAPGKERELVAAISWSGGSTYYADSVKGRFTISRDNAKNTVYLQMNSLKPEDTAVYYCAAAYYAPTRDYHYWGQGTQVTVSS | low polyreactivity |
| QDQLVESGGGLVQAGGSLRLSCAASGRTFDRNAMGWYRQAPGKERELVARITIDGSTNYADSVKGRFTISRDNAKNTVYLQMNSLKPEDTAVYYCATDQLSLSWYFRPYDYGYWGQGTQVTVSS | high polyreactivity |
| QVQLVESGAGLVQAGVSLRLSCAASGSIFADYAMGWYRQAPGKERELVAVISRRGGTTYYADSVKGRFTISRDNAKNTVYLPMNSLKPEDTAVYYCAARRSFNEYDYWGQGTQVTVSS | high polyreactivity |
| QVQLVESGGGLVQAGGSLRLSCAASGITFRGYAMGWYRQAPGKERELVAAINSGGSTNYADAVKGRFTISRDNAKNTVYLQMNSLKPDDPAVYYCAADDYPYGNYYWGQGTQVTVSS | high polyreactivity |
| QVQLVESGGGLVQAGGSLRLSCAASGSIFKQYAMGWYRQAPGKERELVARITGSGGSTYYADSVKGRFTISRDNAKNTVYLQLNSLKPEDTAVYYCANKRYARSSGGYDYWGQGTQVTVSS | low polyreactivity |
| QVQLVESGGGLVQAGGRLRLSCAASGSIFVYNALGWYRQAPGKQRELVAGITFIGGSTYYAESVKGRFTISRDNAKNTVYVQMNSRKPEDTAVYYCNKFPVSPPSYYWGQGTQVTVSS | low polyreactivity |
| QVQLVESGVGLVQAGGSLRLSCAASGRIFNRYAMGWYRQAPGKERELVAAITGSGGRTYYADSVKGRFTISRDNAKNTVYVVRISMKPEDTAVYFCAKYYPEYPAYGRGDYWGQGTQVTVSS | low polyreactivity |
| QVQLVESGGGLVQAGGSLRLSCAASGSTFTRNAMGLYRQAPGKERELVAAITSGGSTNYADSVKGRFTISRDNAKNTVYLQMNSLKPEDTAVYYCNAESPLSYTRHDSWGQGTQVTVSS | low polyreactivity |
| QVQLVESGGGLVQAGGRLRLSCAPSGLIFQHNSMGWYRKATGKERELVASITWDGGSTYYADSVKGRFTISRDNAKNTVYLQMNSLKPEDTAVYYCAARFDSFWVEYDYWGQGTQVTVSS | low polyreactivity |
| QVQLVESGGGLVQAGGSLRLSCAASGFIFYKYAMGWYRQAPGKERELVAAISRGGTTTYADSVKGRFTISRDNAKNTVYLQMNSLKPEDTAVYYCNKYFRYRYDYWGQGTQVTVSS | high polyreactivity |
| QVQLVESGGGLVQAGGSLRLSCAASGRTFRPYAMGWYRPAPGKERELVAAISYRGGITNYADSVKGRFTISRDNAKNTVYLKMNSLKPEDTAVYYCNRYAIWVSRYSDLDYWGQGTEVTVSS | low polyreactivity |
| QVQLVESGGGLVQAGGSLRLSCAASGRIYRGYAMGWYRQAPRKERELFARITSGGRTYYADSVKGRFTISRDNAMNTVYLQMISLKPEDTAVYYCATVGGGYDERHNYWGQWTQVTVSS | high polyreactivity |
| QVQLVESGGGLVQAGGSLRLSCAASGLIFSWYAMGWYRQAPGKERELVAAITGSGGRTYYADSVKGRFTISRDNAKNTVYLQMNSLKPEDTAVYYCAALYTARYDYWGQGTQVTVSS | high polyreactivity |
| QVQLVESGGGLVQAGGSLRLSCAASGSTFWYNAMGWYRQAPGTERELVATITNSGGSTYYADSVKGRFTISRDNAKNTVYLQMNSLKPEDTAVYYCATDVYSGALLKYDYWGQGTQVTVSS | low polyreactivity |
